Measurements: patent US20250262210A1 (TRUSTEES OF COLUMBIA UNIVERSITY IN THE CITY OF NEW YORK, published 2025)

Experiments:
Assay in all cases: IP/MS, LZTR1 R810W-FLAG, U87
INTS1 = INTS1 (human, UniProt Q8N201 1-2190)
Procedure, shortened: (§1)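 Read-out: spectral counts from LC-MS/MS (Orbitrap Fusion) after MaxQuant identification. Variable modifications were Met oxidation, protein N-terminal acetylation and N/Q deamidation.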

SEC24D = biological target: T1, SEC24D (human, UniProt O94855 1-1032, limits assumed)
T1 sequence (looked up): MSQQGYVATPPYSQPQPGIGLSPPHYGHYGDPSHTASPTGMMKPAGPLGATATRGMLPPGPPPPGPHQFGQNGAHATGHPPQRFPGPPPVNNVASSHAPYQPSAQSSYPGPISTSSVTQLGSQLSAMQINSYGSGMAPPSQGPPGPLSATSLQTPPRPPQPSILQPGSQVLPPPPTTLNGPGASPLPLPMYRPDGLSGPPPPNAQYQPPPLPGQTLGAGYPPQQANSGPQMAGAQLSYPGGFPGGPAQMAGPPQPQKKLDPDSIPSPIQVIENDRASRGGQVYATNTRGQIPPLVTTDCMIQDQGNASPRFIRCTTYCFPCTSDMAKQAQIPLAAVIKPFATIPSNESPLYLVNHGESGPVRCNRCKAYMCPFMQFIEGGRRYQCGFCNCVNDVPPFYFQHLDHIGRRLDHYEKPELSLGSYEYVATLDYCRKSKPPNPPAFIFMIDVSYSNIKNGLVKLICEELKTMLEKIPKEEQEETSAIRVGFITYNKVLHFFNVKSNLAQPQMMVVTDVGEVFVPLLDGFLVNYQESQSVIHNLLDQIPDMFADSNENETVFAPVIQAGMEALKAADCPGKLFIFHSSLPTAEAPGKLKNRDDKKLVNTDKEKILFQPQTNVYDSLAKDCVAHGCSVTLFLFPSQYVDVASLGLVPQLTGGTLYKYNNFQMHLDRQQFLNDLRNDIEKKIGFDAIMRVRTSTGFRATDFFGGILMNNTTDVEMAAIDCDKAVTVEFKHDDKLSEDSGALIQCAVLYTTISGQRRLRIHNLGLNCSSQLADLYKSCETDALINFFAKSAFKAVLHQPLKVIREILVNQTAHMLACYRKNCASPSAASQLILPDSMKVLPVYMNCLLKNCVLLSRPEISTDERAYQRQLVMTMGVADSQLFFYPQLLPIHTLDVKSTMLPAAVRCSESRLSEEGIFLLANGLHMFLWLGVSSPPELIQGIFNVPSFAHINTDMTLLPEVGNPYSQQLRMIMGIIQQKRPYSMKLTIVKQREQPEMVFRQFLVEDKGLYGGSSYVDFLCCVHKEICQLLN
Procedure, shortened: as §1

HERC2 = HERC2 (human, UniProt O95714 1-4834)
Procedure, shortened: as §1

MOCOS = biological target: T2, MOCOS (human, UniProt Q96EN8 1-888)
T2 sequence (looked up): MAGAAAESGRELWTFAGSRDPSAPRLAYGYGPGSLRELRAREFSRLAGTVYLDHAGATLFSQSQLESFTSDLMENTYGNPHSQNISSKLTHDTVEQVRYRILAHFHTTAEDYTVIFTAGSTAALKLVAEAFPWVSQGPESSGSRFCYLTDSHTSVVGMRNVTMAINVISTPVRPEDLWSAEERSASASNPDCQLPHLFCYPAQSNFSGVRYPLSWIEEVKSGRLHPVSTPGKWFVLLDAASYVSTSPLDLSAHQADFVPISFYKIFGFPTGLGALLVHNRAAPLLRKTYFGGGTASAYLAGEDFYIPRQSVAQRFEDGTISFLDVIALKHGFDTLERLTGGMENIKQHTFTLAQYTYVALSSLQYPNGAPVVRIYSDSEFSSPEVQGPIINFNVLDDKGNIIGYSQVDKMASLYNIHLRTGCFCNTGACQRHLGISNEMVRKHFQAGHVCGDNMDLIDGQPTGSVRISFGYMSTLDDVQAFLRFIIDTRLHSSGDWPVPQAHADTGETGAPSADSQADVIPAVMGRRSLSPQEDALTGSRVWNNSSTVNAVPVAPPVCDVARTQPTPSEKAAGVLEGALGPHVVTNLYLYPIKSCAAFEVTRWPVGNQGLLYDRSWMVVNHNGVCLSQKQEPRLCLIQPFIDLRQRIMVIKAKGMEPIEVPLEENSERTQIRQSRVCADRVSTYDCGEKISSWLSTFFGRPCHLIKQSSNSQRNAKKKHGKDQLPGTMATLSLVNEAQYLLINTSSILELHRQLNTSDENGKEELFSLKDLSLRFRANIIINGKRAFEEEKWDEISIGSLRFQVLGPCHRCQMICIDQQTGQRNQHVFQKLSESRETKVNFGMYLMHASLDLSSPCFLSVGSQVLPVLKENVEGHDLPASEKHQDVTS
Procedure, shortened: as §1

Measured: binding result

Chain of INTS1 (Q8N201 whole entry, the tested form may be a part): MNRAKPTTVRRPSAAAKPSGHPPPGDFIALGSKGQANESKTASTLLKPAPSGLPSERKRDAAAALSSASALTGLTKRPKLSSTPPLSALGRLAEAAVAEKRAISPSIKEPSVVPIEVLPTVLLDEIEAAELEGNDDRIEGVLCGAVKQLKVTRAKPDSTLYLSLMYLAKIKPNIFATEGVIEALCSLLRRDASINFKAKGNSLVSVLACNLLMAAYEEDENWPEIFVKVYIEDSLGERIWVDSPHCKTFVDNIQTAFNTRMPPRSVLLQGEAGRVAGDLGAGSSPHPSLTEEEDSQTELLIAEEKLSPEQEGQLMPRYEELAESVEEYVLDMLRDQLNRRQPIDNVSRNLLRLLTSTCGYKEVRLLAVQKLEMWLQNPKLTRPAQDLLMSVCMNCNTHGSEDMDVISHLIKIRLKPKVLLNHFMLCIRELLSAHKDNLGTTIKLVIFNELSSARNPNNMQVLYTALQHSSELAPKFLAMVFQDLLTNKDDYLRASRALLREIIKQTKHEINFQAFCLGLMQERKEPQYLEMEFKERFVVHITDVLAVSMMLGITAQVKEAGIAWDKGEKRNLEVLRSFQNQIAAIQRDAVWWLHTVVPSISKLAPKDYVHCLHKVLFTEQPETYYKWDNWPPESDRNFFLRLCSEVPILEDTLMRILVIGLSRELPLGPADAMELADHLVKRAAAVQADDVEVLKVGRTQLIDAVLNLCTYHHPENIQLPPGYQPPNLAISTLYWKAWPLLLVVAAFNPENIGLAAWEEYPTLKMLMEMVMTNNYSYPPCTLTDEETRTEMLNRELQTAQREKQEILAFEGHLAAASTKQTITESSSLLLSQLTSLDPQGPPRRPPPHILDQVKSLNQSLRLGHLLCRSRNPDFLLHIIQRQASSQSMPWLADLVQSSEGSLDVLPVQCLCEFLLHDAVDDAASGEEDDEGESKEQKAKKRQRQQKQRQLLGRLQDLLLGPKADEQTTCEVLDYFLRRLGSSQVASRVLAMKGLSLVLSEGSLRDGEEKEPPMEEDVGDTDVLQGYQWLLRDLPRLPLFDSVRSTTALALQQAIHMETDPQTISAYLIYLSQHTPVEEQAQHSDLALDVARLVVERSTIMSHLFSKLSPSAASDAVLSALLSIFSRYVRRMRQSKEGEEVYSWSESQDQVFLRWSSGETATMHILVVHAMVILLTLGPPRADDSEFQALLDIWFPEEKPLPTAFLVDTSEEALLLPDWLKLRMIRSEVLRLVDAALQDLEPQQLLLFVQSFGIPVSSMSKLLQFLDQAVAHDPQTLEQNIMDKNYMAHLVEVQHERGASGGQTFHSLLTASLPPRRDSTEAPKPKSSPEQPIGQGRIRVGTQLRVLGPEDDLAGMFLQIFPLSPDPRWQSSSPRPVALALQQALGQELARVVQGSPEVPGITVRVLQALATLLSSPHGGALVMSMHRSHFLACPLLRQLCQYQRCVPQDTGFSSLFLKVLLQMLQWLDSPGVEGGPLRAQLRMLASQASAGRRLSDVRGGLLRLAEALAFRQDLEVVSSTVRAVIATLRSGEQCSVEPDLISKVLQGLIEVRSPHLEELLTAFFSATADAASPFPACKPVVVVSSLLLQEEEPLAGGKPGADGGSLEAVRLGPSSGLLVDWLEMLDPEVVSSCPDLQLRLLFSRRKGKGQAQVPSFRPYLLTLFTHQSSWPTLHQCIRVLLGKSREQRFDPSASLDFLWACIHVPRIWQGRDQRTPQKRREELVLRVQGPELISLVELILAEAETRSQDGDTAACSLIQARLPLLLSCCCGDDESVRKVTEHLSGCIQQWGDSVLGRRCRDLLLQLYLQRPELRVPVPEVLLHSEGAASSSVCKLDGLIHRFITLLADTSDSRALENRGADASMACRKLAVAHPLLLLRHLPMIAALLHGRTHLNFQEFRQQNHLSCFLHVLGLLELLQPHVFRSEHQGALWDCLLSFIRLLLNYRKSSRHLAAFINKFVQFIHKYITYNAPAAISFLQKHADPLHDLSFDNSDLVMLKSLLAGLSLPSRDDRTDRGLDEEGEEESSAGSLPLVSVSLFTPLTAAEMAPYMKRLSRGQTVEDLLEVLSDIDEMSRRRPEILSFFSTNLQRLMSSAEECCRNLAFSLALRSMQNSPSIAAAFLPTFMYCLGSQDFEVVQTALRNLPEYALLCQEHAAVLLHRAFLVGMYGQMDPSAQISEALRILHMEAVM

B1: LZTR1 R810W-FLAG (other, human, UniProt Q8N653 1-840, looked up)
chain: MAGPGSTGGQIGAAALAGGARSKVAPSVDFDHSCSDSVEYLTLNFGPFETVHRWRRLPPCDEFVGARRSKHTVVAYKDAIYVFGGDNGKTMLNDLLRFDVKDCSWCRAFTTGTPPAPRYHHSAVVYGSSMFVFGGYTGDIYSNSNLKNKNDLFEYKFATGQWTEWKIEGRLPVARSAHGATVYSDKLWIFAGYDGNARLNDMWTIGLQDRELTCWEEVAQSGEIPPSCCNFPVAVCRDKMFVFSGQSGAKITNNLFQFEFKDKTWTRIPTEHLLRGSPPPPQRRYGHTMVAFDRHLYVFGGAADNTLPNELHCYDVDFQTWEVVQPSSDSEVGGAEVPERACASEEVPTLTYEERVGFKKSRDVFGLDFGTTSAKQPTQPASELPSGRLFHAAAVISDAMYIFGGTVDNNIRSGEMYRFQFSCYPKCTLHEDYGRLWESRQFCDVEFVLGEKEECVQGHVAIVTARSRWLRRKITQARERLAQKLEQEAAPVPREAPGVAAGGARPPLLHVAIREAEARPFEVLMQFLYTDKIKYPRKGHVEDVLLIMDVYKLALSFQLCRLEQLCRQYIEASVDLQNVLVVCESAARLQLSQLKEHCLNFVVKESHFNQVIMMKEFERLSSPLIVEIVRRKQQPPPRTPLDQPVDIGTSLIQDMKAYLEGAGAEFCDITLLLDGHPRPAHKAILAARSSYFEAMFRSFMPEDGQVNISIGEMVPSRQAFESMLRYIYYGEVNMPPEDSLYLFAAPYYYGFYNNRLQAYCKQNLEMNVTVQNVLQILEAADKTQALDMKRHCLHIIVHQFTKVSKLPTLWSLSQQLLLDIIDSLASHISDKQCAELGADI
notes: Stably expressed in U87 cells by lentivirus; also called LZTR1-FLAG-R810W; LZTR1 RW; not shown: FLAG tag
binds: INTS1 | SEC24D | HERC2 | MOCOS
